# Test results reported in patent US20190381150.
# Molecular target: Human lactoferrin (lactoferrin from human milk, Sigma) (UniProt P02788)
# Sequence (P02788 20-710): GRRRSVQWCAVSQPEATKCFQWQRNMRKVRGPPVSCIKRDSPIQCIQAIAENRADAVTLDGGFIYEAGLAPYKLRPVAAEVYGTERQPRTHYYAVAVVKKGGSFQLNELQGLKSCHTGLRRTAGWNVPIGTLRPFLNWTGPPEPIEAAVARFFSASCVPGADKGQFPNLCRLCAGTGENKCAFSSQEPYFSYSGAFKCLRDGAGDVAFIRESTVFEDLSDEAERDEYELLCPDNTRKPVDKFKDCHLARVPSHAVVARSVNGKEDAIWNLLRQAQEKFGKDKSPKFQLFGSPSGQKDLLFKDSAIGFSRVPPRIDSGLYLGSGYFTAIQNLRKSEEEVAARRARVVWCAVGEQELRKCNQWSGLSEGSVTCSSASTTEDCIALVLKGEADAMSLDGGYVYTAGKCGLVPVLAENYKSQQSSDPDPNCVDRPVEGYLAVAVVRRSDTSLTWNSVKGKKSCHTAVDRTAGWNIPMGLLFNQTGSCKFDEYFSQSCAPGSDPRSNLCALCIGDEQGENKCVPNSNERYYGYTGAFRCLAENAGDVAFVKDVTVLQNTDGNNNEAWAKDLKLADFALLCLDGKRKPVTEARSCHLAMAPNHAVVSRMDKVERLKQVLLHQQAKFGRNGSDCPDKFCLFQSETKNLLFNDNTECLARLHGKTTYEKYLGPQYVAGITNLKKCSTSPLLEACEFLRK
substance,measurement,value
"EndoBI-1 D184N (Asp 184 of EndoBI-1 mutated to Asn184), recombinant, signal sequence and transmembrane domains deleted",shift in molecular weight on SDS-PAGE of human milk after overnight incubation,No change was observed when the milk sample was incubated with EndoBI-1 D184N
